The test deals with biotinylated gp120 165-182 peptide (HIV-1 (AE.A244)). Put plainly: BLI. For orientation: Biolayer interferometry detects binding as a change in optical thickness at a sensor tip.

B1: CH59 unmutated ancestor (CH59-UA) Fab (Fab, V domains shown)
VH: EVQLVESGGGLVQPGRSLRLSCAASGFTFDDYAMHWVRQAPGKGLEWVSGISWNSGSIGYADSVKGRFTISRDNAKNSLYLQMNSLRAEDTALYYCAKDSPRGELPFDYWGQGTLVTVSS
VL: SYELTQPPSVSVSPGQTARITCSGDALPKKYAYWYQQKSGQAPVLVIYEDSKRPSGIPERFSGSSSGTMATLTISGAQVEDEADYYCYSTDSSGNHRVFGGGTKLTVL
Turning to B1, the Kd (commonly the concentration at which binding is half-saturated) was determined as 500 nM.

Values taken from paper PMC4324565.
